Assay results published in the RNAGym collection of RNA variant scans (doi:10.1073/pnas.2313332121).

B1: TPR t1 (parent)
chain: GACCAAUCUGCCCUCAGAGCUCGAGAACAUCUUCGGAUGCAGAGGAGGCAGGCUUCGGUGGCGCGAUAGCGCCAACGUCCUCAACCUCCAAUGCAUCCCACCACAUGAUGAUGCCUGAAGAGCCUUGGUUUUUUG

Variants of: B1
Assay: polymerase ribozyme fitness, log enrichment relative to wild type (log ratio); higher = more active; in vitro selection for triplet polymerase activity
In short: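 Frozen incubation at −7 °C formed the core of a single, triplicate in vitro selection round applied to PCR-built, transcribed mutant libraries of each subunit of a heterodimeric triplet polymerase ribozyme. Extended constructs were gel-excised, captured with streptavidin beads and amplified by RT-PCR, and input and output libraries were Illumina-sequenced with a filter of ≥10 input reads and ≥1 read per output. Fitness is the logarithm of genotype enrichment relative to wild-type enrichment, with inverse-variance-weighted replicate averaging, and the logarithm is base 2.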

GACCAAUCUGUCCUCAGAGCUCGAGAACAUCUUCGGAUGCAGAGGAGGCAGGUUUCGGUGGCGCGAUAGCGCCAACGUCCUCAGCCUCCAAUGCAUCCCACCACAUGAUGAUGCCUGAAGAGCCUUGGUUUUUUG and GACCAAUCUGUCCUCAGAGCUCGAGAACAUCUUCGGAUGCAGAGGAGGCAGGUUUCGGUGGCGCGAUAGCGUCAACGUCCUGAACCUCCAAUGCAUCCCACCACAUGAUGAUGCCUGAAGAGCCUUGGUUUUUUG are within 0.2 log units of each other in “polymerase ribozyme fitness (log ratio)” value: -1.32 for the first, -1.43 for the second.

Compared with GACCAAUCUGUCCUCAGAGCUCGAGAACAUCUUCGGAUGCAGAGGAGGCAGGUUUCGGUGGCGCGAUAGCGUCAACGUCCUGAACCUCCAAUGCAUCCCACCACAUGAUGAUGCCUGAAGAGGCUUGGUUUUUUG, GACCAAUCUGUCCUCAGAGCUCGAGAACAUCUUCGGAUGCAGAGGAGGCAGGCUUAGGUGGCGCGAUAGCGCCAACGUCCUCAACCUCCAUUGCACCCCACCACAUGAUGAUGCCUGAAGAGCCUUGGUUUUUUG is lower in “polymerase ribozyme fitness (log ratio)” value: -0.853 for the first, -3.51 for the second.

First: GACCAAUCUGUCCUCAGAGCUCGAGAACAUCUUCGGAUGCAGAGGAGGCAGGCUUAGGUGGCGCGAUAGCGCCAACGUCCUCAACCUCCAAUGCAUCCCACCAAAUGAUGAUGCGUGAAGAGCCUUGGUUUUUUG
Second: GACCAAUCUGUCCUCAGAGCUCGAGAACAUCUUCGGAUGCAGAGGAGGCAGGCUUGGGUGGCGCGAUAGCGCCAACGUCCUCAACCUUCAAUGCAUCCCACCACAUGAUGAUGCCUGAACAUCCUUAGUUUUUUG
The “polymerase ribozyme fitness (log ratio)” value of the first is lower: -6.27 for the first, -0.748 for the second.

GACCAAUCUGUCCUCAGAGCUCGAGAACAUCUUCGGAUGCAGAGGAGGCAGGCUUCGGUGGGGCGAUAGCGCCAACGUCCUCAACCUCUAAUGCAUCCCACCACAUGAUGAUGCCUGAAGCGCGAUGGUUUUUUG and GACCAAUCUGUCCUCAGAGCUCGAGAACAUCUUCGGAUGCAGAGGAGGCAGGCUUCGGUGGGGCGAUAGCGCCAACGUCCUCAACCUCCAAUGCAUCCCACCACAUGAUGAAGCCUGAAGAGACUUUGUUUUUUG are within 0.2 log units of each other in “polymerase ribozyme fitness (log ratio)” value: -0.483 for the first, -0.368 for the second.

Compared with GACCAAUCUGUCCUCAGAGCUCGAGAACAUCUUCGGAUGCAGAGGAGGCAGGCUUCGGUGGCGUGAUAGCGCCAACGCCCUCAACCUCCAAUGCAUCCCACCACAUGAUGAUGCCUGAAGAGCCUUGGUUUUUUG, GACCAAUCUGUCCUCAGAGCUCGAGAACAUCUUCGGAUGCAGAGGAGGCAGGCUUCGGUGGCGCGAUAGAGCCAACGUCCUCAACCUCCAAUGCAUCCCACCACAUGAUGAUGCCUGAAGAGCCUUGGAUUUUUG is lower in “polymerase ribozyme fitness (log ratio)” value: -0.654 for the first, -3.59 for the second.

First: GACCAAUCUGUCCUCAGAGCUCGAGAACAUCUUCGGAUGCAGAGGAGGCAGGCUUCGGUGGCGCGAUAGUGCCAACGUCCUCAACCUCCAAUGCAUCCCAACACAUGAUGAUGCCUGAAGAGCCUUGCUUUUUUG
Second: GACCAAUCUGUCCUCAGAGCUCGAGAACAUCUUCGGAUGCAGAGGAGGCAGGCUUCGGUGGCGCGAUAGCGACAACGACCUCAACCUCCAAUGCAUACCACCACAUGAUGAUGCCUGAAGAGCCUUGGUUUUUUG
The “polymerase ribozyme fitness (log ratio)” value of the first is higher: -4.09 for the first, -5.56 for the second.

Compared with GACCAAUCUGUCCUCAGAGCUCGAGAACAUCUUCGGAUGCAGAGGAGGCAGGCUUCGGUGGCGCGAUAGCGCCAACGUCUUCAACCUCCAAUGCAUCCCACCACAUGAUGAUCCCUGAAGAGCCUUGGUUUUUUG, GACCAAUCUGUCCUCAGAGCUCGAGAACAUCUUCGGAUGCAGAGGAGGCAGGCUUCGGUGGCGCGAUAGCGCCAACGUCCUCAAGCUCCAAUGCAUCCCACCACAUGAUGAUGCCUGAAGAGCCUUGGUUUUUUG is higher in “polymerase ribozyme fitness (log ratio)” value: -3.93 for the first, -2.37 for the second.

Compared with GACCAAUCUGUCCUCAGAGCUCGAGAACAUCUUCGGAUGCAGAGGAGGCAGGCUUCGGUGGCGCGAUAGCGCCAACGUCCUCAAGCUCCAAUGCAUCCCACCACAUGAGGAUGCCUGAAGAGACUUGGUUUUUUG, GACCAAUCUGUCCUCAGAGCUCGAGAACAUCUUCGGAUGCAGAGGAGGCAGGCUUCGGUGGCGCGAUAGCGCCAACGUCCUCAACCUCCAAUGAAUCCCACCACAUGAUGAUGCCUGAAGAGCCUUGGUUUUUUG is higher in “polymerase ribozyme fitness (log ratio)” value: -5.74 for the first, -2.35 for the second.

Going from GACCAAUCUGUCCUCAGAGCUCGAGAACAUCUUCGGAUGCAGAGGAGGCAGGCUUCGGUGGCGCGAUAGCGCCAACGUCCUCAACCUCCAAUGCAUUCCACCACAUGAUGAUGCCUGAAGAGCCUUGGUUUUUUG to GACCAAUCUGUCCUCAGAGCUCGAGAACAUCUUCGGAUGCAGAGGAGGCAGGCUUCGGUGGCGCGAUAGCGCCAACGUCCUCAACCUCCAAUGCAUCCUACCACAUGAUGAUGCCUGAAGAGCCUUGGUUUUUUG, the “polymerase ribozyme fitness (log ratio)” value falls from -1.74 to -3.13.

Compared with GACCAAUCUGUCCUCAGAGCUCGAGAACAUCUUCGGAUGCAGAGGAGGCAGGCUUCGGUGGCGCGAUAGCGCCAACGUCCUCAACCUCCAAUGCAUCCCACCACAUGAUGAUGGCUGAAGAGCCUUGGUUUUUUG, GACCAAUCUGUCCUCAGAGCUCGAGAACAUCUUCGGAUGCAGAGGAGGCAGGCUUCGGUGGCGCGAUAGCGCCAACGUCCUCAACCUCCAAUGCAUCCCACCACAUGAUGAUGUCUGAAGAGCCUUGGUUUUUUG is higher in “polymerase ribozyme fitness (log ratio)” value: -3.54 for the first, -1.57 for the second.

For GACCAAUCUGUCCUCAGAGCUCGAGAACAUCUUCGGAUGCAGAGGAGGCAGGCUUCGGUGGCGCGAUAGCGCCAACGUCCUCAACCUCCAAUGCAUCCCACCACAUGAUGAUGCUUGAAGAGCCUUGGUUUUUUG, the “polymerase ribozyme fitness (log ratio)” value was -1.61.
